According to patent publication US20230235040A1 (ALMIRALL S A, published 2023):

Columns and labels:
[1] = molecular target: T1, cy-IL-36γ-Avi (in-vivo biotinylated) (cynomolgus monkey, limits assumed, site-specifically biotinylated in vivo on the C-terminal AviTag (BirA)); assay: SPR (Biacore 8K), in-vivo biotinylated IL-36-Avi captured on CAP chip, bispecific IgG injected, 25°C
T1 construct: also called biotinylated cyno IL-36γ-Avi
T1 chain: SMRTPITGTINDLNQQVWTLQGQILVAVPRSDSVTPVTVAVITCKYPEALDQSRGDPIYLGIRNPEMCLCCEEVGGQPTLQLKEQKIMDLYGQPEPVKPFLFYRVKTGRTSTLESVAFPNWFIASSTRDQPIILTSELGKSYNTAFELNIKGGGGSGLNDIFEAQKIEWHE
Protocol: (§1) Surface plasmon resonance (SPR) analysis was used to determine the binding affinity for human and cynomolgus monkey IL-36 (“hu-IL-36” and “cy-IL-36,” respectively) using a BIACORE™ 8K instrument as described in Example 2. […] Briefly, a 1:4 dilution of Biotin CAPture Reagent (GE Healthcare) into HBS-EP buffer (0.01 M HEPES pH 7.4, 0.15 M NaCl, 3 mM EDTA, 0.005% Surfactant P20) was applied to a CAP sensor chip at 2 μL/min flow rate. For kinetics measurements, 1 nM biotinylated human and cyno IL-36α-Avi, IL-36γ-Avi; 0.8 nM biotinylated human and cyno IL-36β-Avi were captured at 10 μL/min to achieve 15-25 response units in the second flow cell (FC2). FC1 was kept as a reference. […] The sensorgram was recorded and subject to reference and buffer subtraction before data analysis with the BIACORE® 8K Evaluation Software (version 1.1.1.7442). […] Association rates (kₒₙ) and dissociation rates (koff) were calculated using a simple one-to-one Langmuir binding model. The equilibrium dissociation constant (KD) was calculated as the ratio of koff/kₒₙ.

[2] = molecular target: T2, hu-IL-36β-Avi (in-vivo biotinylated) (human, site-specifically biotinylated in vivo on the C-terminal AviTag (BirA)); assay: as above
T2 construct: also called biotinylated human IL-36β-Avi
T2 chain: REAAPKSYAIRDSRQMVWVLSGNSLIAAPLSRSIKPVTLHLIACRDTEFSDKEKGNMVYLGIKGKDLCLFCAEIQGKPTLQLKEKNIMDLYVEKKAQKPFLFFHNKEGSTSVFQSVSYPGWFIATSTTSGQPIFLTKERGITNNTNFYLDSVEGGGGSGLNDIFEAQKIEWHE
Protocol: as §1

[3] = molecular target: T3, cy-IL-36β-Avi (in-vivo biotinylated) (cynomolgus monkey, site-specifically biotinylated in vivo on the C-terminal AviTag (BirA)); assay: as above
T3 construct: also called cy-IL-36J-Avi [sic]; biotinylated cyno IL-36β-Avi
T3 chain: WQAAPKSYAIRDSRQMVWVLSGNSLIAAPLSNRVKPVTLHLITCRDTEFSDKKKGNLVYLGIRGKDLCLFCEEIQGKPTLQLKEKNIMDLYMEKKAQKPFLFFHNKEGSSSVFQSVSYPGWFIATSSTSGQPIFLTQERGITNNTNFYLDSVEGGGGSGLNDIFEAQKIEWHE
Protocol: as §1

[4] = molecular target: T4, cy-IL-36α-Avi (in-vivo biotinylated) (cynomolgus monkey, limits assumed, site-specifically biotinylated in vivo on the C-terminal AviTag (BirA)); assay: as above
T4 construct: also called biotinylated cyno IL-36α-Avi
T4 chain: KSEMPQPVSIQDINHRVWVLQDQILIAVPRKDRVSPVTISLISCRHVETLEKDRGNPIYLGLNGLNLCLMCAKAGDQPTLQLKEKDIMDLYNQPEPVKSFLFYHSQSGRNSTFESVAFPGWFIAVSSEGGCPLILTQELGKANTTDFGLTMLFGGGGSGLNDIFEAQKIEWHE
Protocol: as §1

[5] = molecular target: T5, hu-IL-36γ-Avi (in-vivo biotinylated) (human, site-specifically biotinylated in vivo on the C-terminal AviTag (BirA)); assay: as above
T5 construct: also called biotinylated human IL-36γ-Avi
T5 chain: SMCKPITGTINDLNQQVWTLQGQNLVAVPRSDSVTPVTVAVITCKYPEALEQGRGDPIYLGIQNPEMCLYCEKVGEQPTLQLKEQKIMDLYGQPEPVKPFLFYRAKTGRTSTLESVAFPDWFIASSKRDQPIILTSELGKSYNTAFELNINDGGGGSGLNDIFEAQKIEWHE
Protocol: as §1

[6] = molecular target: T6, hu-IL-36α-Avi (in-vivo biotinylated) (human, site-specifically biotinylated in vivo on the C-terminal AviTag (BirA)); assay: as above
T6 construct: also called biotinylated human IL-36α-Avi
T6 chain: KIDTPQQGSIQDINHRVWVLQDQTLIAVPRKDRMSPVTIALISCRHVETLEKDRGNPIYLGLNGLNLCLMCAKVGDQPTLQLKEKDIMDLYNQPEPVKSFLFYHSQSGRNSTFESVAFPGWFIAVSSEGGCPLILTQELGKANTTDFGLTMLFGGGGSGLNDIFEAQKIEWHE
Protocol: as §1

[7] = molecular target: T7, hu-IL-36β (human IL-36β, N-terminally truncated active form R5-E157) (human); assay: cell-based or functional assay
T7 chain: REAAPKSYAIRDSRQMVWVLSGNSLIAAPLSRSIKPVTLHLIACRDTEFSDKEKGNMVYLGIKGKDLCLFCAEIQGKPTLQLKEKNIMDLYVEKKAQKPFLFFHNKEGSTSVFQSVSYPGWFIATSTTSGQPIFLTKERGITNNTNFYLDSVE

B1: mAb2.10/mAb6_2.7 multispecific common light chain antibody (IgG, knobs-into-holes, N297G) (bispecific antibody)
heavy 1: not shown
heavy 2: not shown
light: ESVLTQPPSVSGAPGQRVTISCTGSSSNIGAHYDVHWYQQLPGTAPKLLIYGNDNRPSGVPDRFSGSKSGTSASLAITGLQAEDEADYYCQSYDYSLSGYVFGGGTKLTVLGQPKAAPSVTLFPPSSEELQANKATLVCLISDFYPGAVTVAWKADSSPVKAGVETTTPSKQSNNKYAASSYLSLTPEQWKSHKSYSCQVTHEGSTVEKTVAPTECS
notes: tags removed; also called mAb2.10/mAb6_2.7 IgG; anti-IL-36 multispecific antibody
Question: Which results are given for B1?
Answer: Kd [1]: 0.79 nM; koff [1]: 0.00013 s⁻¹; kon [1]: 165000 M⁻¹ s⁻¹; Kd [2]: 0.63 nM; koff [2]: 4.77e-05 s⁻¹; kon [2]: 76000 M⁻¹ s⁻¹; Kd [3]: 0.97 nM; koff [3]: 6.32e-05 s⁻¹; kon [3]: 65200 M⁻¹ s⁻¹; Kd [4]: 1.93 nM; koff [4]: 0.000335 s⁻¹; kon [4]: 174000 M⁻¹ s⁻¹; Kd [5]: 0.72 nM; koff [5]: 0.000122 s⁻¹; kon [5]: 171000 M⁻¹ s⁻¹; Kd [6]: 1.17 nM; koff [6]: 0.000157 s⁻¹; kon [6]: 134000 M⁻¹ s⁻¹; % inhibition of IL-8 production in HEKa cells at 8 nM antibody [7]: 100%; % inhibition of IL-8 production in HaCat cells at 8 nM antibody [7]: 100%; IC50, IL-36-mediated IL-8 production in HaCat cells [7]: ~0.13 nM; IC50, IL-36-mediated IL-8 production in primary human adult keratinocytes (HEKa) [7]: ~0.11 nM
